In ChEMBL document CHEMBL2074186:

Substrate: Nc1ccc(C(=O)NCC(=O)O)cc1
Assay: cells, lysate or membranes named

B1: Solute carrier family 22 member 6 (Rattus norvegicus) (protein)
chain: MAFNDLLKQVGGVGRFQLIQVTMVVAPLLLMASHNTLQNFTAAIPPHHCRPPANANLSKDGGLEAWLPLDKQGQPESCLRFTSPQWGPPFYNGTEANGTRVTEPCIDGWVYDNSTFPSTIVTEWNLVCSHRAFRQLAQSLYMVGVLLGAMVFGYLADRLGRRKVLILNYLQTAVSGTCAAYAPNYTVYCVFRLLSGMSLASIAINCMTLNVEWMPIHTRAYVGTLIGYVYSLGQFLLAGIAYAVPHWRHLQLVVSVPFFIAFIYSWFFIESARWYSSSGRLDLTLRALQRVARINGKQEEGAKLSIEVLRTSLQKELTLSKGQASAMELLRCPTLRHLFLCLSMLWFATSFAYYGLVMDLQGFGVSMYLIQVIFGAVDLPAKFVCFLVINSMGRRPAQMASLLLAGICILVNGIIPKSHTIIRTSLAVLGKGCLASSFNCIFLYTGELYPTVIRQTGLGMGSTMARVGSIVSPLVSMTAEFYPSMPLFIFGAVPVVASAVTALLPETLGQPLPDTVQDLKSRSRGKQNQQQQEQQKQMMPLQASTQEKNGL
Km: 43.2 µM
